Results: patent publication US20070148773

Tests used:
Experiment in all cases: cell_activity
[1] = target: Int-h (mutant lambda integrase) (Bacteriophage lambda) (UniProt P03700); conditions: HeLa 48 h
[2] = target: Int-h/218 (double mutant lambda integrase) (Bacteriophage lambda) (UniProt P03700); conditions: HeLa 48 h
[3] = target: T1, Int (wild-type lambda integrase) (Bacteriophage lambda) (UniProt P03700); conditions: attP x attP intermolecular, HeLa 48 h; attP x attB 0.81%
T1 sequence: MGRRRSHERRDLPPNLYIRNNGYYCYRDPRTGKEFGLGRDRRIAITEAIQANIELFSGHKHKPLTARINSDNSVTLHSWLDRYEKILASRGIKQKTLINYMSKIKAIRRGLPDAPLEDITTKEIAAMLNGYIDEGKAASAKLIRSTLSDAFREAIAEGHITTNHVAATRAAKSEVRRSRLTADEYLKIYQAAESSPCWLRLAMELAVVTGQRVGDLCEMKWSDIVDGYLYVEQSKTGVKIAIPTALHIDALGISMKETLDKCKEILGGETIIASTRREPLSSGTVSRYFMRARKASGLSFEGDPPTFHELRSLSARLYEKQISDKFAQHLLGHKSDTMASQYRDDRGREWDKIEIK

With “TCTGTTACAGGTCACTAATACCATCTAAGTAGTTGATTCATAGTGACTGCATATGTTGTGTTTTACAGTATTATGTAGTCTGTTTTTTATGCAAAATCTAATTTAATATATTGATATTTATATCATTTTACGTTTCTCGTTCAGCTTTTTTATACTAAGTTGGCATTATAAAAAAGCATTGCTTATCAATTTGTTGCAACGAACAGGTCACTATCAGTCAAAATAAAATCATTATTTGATTTC (double strand) [attP]” the activity ([1]; attP x attP intermolecular, attP x attB 9.90%) was 8.07 % GFP+ cells, the activity ([2]; attP x attP intermolecular, attP x attB 16.45%) was 17.6 % GFP+ cells and the activity [3] was 1.24 % GFP+ cells.

Work on “CTGCTTTTTTATACTAACTTG (double strand) [attB]” yielded an activity ([1]; attB x attB intermolecular) of 1.15 % GFP+ cells and an activity ([2]; attB x attB intermolecular) of 4.01 % GFP+ cells.
